Measured values: article PMC3268813

Columns and labels:
[1] = target: synthetic phospho-S463 CRN2 coiled coil peptide (human) (UniProt Q9ULV4); test: small-angle X-ray scattering
[2] = target: synthetic phospho-S463 CRN2 coiled coil peptide (human) (UniProt Q9ULV4); test: SEC-MALS

stoichiometry N [1]: 3 | stoichiometry N [2]: 3
Substance: synthetic phospho-S463 CRN2 coiled coil peptide (from UniProt Q9ULV4 435-474)
